In paper PMC11551315 (Proceedings of the National Academy of Sciences of the …, 2024):
Read-outs that look alike come from different tables or passages of the source.

Key:
Cdc15-eGFP [1] = molecular target: T1, Cdc15-eGFP (S. cerevisiae, UniProt P27636 1-974); test: AlphaScreen or HTRF
T1 sequence (looked up): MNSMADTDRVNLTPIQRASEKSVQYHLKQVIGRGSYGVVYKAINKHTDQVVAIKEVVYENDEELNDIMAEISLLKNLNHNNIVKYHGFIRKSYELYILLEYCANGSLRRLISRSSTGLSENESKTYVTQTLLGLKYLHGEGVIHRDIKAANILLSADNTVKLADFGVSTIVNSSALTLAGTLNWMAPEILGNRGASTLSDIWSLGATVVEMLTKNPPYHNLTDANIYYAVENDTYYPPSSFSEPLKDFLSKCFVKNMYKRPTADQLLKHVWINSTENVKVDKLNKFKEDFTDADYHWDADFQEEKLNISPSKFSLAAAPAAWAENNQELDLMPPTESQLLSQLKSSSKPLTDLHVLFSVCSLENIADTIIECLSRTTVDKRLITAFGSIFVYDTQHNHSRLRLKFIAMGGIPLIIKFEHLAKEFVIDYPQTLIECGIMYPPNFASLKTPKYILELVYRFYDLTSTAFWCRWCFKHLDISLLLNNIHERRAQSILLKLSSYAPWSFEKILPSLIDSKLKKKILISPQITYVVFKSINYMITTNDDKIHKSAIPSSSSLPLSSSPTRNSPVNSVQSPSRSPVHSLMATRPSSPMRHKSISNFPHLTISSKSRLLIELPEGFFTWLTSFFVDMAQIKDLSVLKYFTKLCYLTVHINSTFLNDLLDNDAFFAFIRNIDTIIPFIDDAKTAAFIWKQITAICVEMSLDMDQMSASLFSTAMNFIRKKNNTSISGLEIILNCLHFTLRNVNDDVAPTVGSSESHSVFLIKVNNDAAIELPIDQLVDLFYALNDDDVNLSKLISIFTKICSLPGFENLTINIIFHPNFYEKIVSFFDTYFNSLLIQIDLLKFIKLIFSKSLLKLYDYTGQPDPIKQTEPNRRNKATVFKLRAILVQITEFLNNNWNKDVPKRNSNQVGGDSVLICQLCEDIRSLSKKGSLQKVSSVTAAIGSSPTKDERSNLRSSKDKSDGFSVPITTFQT

Cdc15-eGFP [2] = molecular target: T1, Cdc15-eGFP; test: AlphaScreen or HTRF; remark: listed apart in the source

B1: Recombinant Tem1 (unlabeled) (natural protein, S. cerevisiae, UniProt P38987 1-245, looked up)
chain: MATPSTGANNSIPAVRNQVEVQVGLVGDAQVGKTSLMVKYVQNIYDKEYTQTLGVNFLKRKVSIRSTDIIFSIMDLGGQREFINMLPIATVGSSVIIFLFDLTRPETLSSIKEWYRQAYGLNDSAIPILVGTKYDLLIDLDPEYQEQISRTSMKYAQVMNAPLIFCSTAKSINIQKIFKIALAKIFNLTLTIPEINEIGDPLLIYKHLGGQQHRHHNKSQDRKSHNIRKPSSSPSSKAPSPGVNT
Question: Which results are given for B1?
Answer: Kd (Cdc15-eGFP [1]): 3.9 ± 0.8 nM; Kd (Cdc15-eGFP [2]): 16 ± 3 nM
